Results published in publication PMC6537880 (Analytical chemistry, 2016).

Target: the molecule itself
Test: native MS

B1: AAV8 capsid viral protein VP3 (natural protein)
chain: MAAGGGAPMADNNEGADGVGSSSGNWHCDSTWLGDRVITTSTRTWALPTYNNHLYKQISNGTSGGATNDNTYFGYSTPWGYFDFNRFHCHFSPRDWQRLINNNWGFRPKRLSFKLFNIQVKEVTQNEGTKTIANNLTSTIQVFTDSEYQLPYVLGSAHQGCLPPFPADVFMIPQYGYLTLNNGSQAVGRSSFYCLEYFPSQMLRTGNNFQFTYTFEDVPFHSSYAHSQSLDRLMNPLIDQYLYYLSRTQTTGGTANTQTLGFSQGGPNTMANQAKNWLPGPCYRQQRVSTTTGQNNNSNFAWTAGTKYHLNGRNSLANPGIAMATHKDDEERFFPSNGILIFGKQNAARDNADYSDVMLTSEEEIKTTNPVATEEYGIVADNLQQQNTAPQIGTVNSQGALPGMVWQNRDVYLQGPIWAKIPHTDGNFHPSPLMGGFGLKHPPPQILIKNTPVPADPPTTFNQSKLNSFITQYSTGQVSVEIEWELQKENSKRWNPEIQYTSNYYKSTSVDFAVNTEGVYSEPRPIGTRYLTRNL
B1: binds.
